From US20230287458, “RECOMBINANT ADENO-ASSOCIATED VIRAL […] FOR […] GENE […]” (Abeona Therapeutics Inc., published 2023) come the findings set out here.

The data set addresses Cre recombinase (UniProt P06956 P06956:1-343). Nature of the data set: cell_activity; Lox66 partner site of Lox71 in same experiment; full-length ABCA4 mRNA relative to the pair without Cre. The settings on record: tags: NLS; expressed from the 5' ABCA4 vector after T2A self-cleavage; chain copies: 4. An excerpt: We quantified the expression levels of full-length ABCA4 mRNA in cells transfected with various plasmids.

Sequence of Cre recombinase (P06956 whole entry, one chain of several): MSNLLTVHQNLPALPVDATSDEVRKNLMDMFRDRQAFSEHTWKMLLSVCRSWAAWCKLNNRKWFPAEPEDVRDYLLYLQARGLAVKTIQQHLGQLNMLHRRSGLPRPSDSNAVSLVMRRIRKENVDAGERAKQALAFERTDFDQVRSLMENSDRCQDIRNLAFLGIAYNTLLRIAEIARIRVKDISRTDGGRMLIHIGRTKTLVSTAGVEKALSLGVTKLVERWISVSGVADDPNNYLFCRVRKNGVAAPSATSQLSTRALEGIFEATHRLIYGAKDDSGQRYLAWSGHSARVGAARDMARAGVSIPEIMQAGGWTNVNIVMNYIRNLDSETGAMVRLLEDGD

B1: Lox66 (dsDNA)
DNA 1: ATAACTTCGTATAATGTATGCTATACGAACGGTA
DNA 2: TACCGTTCGTATAGCATACATTATACGAAGTTAT
With B1, the activity is around 55 fold.
